Consider three molecules from patent publication US20250263483A1 (TRUSTEES OF COLUMBIA UNIVERSITY IN THE CITY OF NEW YORK, published 2025).

The target of assay [1] is T1, human PAG peptide (extracellular portion of human PAG) (human).
T1 construct: The immunogen was amino acids 1-16 of human PAG; also called human PAG-1 peptide; human PAG protein
T1 peptide: MGPAGSLLGSGQMQIT
In words: dose-response ELISA, immobilized human PAG, purified monoclonal antibodies (FIG. 2F). On the procedure:
(§1) Primary ELISA was done for screening binding of hybridoma supernatants to human, murine, and cynomolgus PAG (2 μg/mL). Second ELISA for confirmation of binding of purified monoclonal antibodies to human PAG, 96-well half area high binding ELISA plates (Corning 3690) were coated 1 μg/mL of human PAG protein in 1×TBS at room temperature for 2 hours. The plate was washed with TBS containing 0.05% Tween 20 and blocked with 2% BSA in TBS for 1 hour at room temperature. After 1 hour, the plate was washed and diluted PAG antibodies in 1×TBS were dispensed to respective wells and incubated for 1 hour at room temperature. The plate was washed and incubated with peroxidase-Affinipure F(ab′)2 goat anti-mouse IgG (Jackson Immuno Research, Cat. No. 115-006-003) at 1:5000 dilution for 1 hour at room temperature. After the plate was washed, 3, 3′, 5, 5′ tetramethyl benzidine (TMB) substrate (Biolegend, Cat. No. 421101) was added to each well. The reaction was stopped by adding 2N H2SO4. Absorbance was measured on plate reader (Biotek Synergy H1) and results calculated by A=A450 nm-A570 nm.

In assay [2] the target is T1, human PAG peptide (extracellular …). In words: ELISA on human PAG-1 peptide (FIG. 10).
The target of assay [3] is T2, mouse PAG, endogenous on wild-type C57BL6 splenocytes (mouse, UniProt Q3U1F9 1-429).
T2 construct: whole, on cells; also called murine PAG
T2 sequence (looked up): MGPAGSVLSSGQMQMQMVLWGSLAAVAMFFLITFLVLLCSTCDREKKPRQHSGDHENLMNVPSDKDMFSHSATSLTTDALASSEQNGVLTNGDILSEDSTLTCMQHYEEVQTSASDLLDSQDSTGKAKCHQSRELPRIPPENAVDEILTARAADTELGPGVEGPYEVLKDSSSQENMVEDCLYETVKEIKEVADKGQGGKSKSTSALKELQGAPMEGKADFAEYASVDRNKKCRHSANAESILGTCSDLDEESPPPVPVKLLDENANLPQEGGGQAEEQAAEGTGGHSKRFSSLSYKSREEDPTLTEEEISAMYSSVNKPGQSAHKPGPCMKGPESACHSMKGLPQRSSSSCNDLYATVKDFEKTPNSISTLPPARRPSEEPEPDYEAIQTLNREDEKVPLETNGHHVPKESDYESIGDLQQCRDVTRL
In words: flow cytometry, non-permeabilized WT vs PAG KO mouse splenocytes (FIG. 2B). How it is done: (§2) Non-permeabilized cells were stained with the primary antibody clones in FACS Buffer [HBSS without Ca²⁺/Mg²⁺, FBS (3%), NaN3 (0.02%), and CaCl2 (2.5 mM)], then washed and stained with fluorescently conjugated secondary antibody (goat anti-mouse, Jackson ImmunoResearch, Cat. No. 115-006-003). Stained cells were then fixed in 1% paraformaldehyde. Splenocytes were pre-treated with Fc receptor block (Biolegend, Cat. No. 422301). PAG-GFP expressing cells were fixed in 1% paraformaldehyde. Events were recorded using FACSCanto (BD), and analyzed using FlowJo software (Ver. 10.8.1).

In assay [4] the target is T1, human PAG peptide (extracellular …). In words: dose-response ELISA, immobilized human PAG, purified monoclonal antibody (FIG. 2F). On the procedure: as §1
In assay [5] the target is T3, PAG-GFP (full-length human PAG fused to GFP) expressed on cells (human, UniProt Q9NWQ8 1-432).
T3 construct: Stably expressed in A549 cells (flow cytometry) and Jurkat T cells (microscopy); also called PAG-GFP (OE); not shown: GFP tag (peGFP-N1 / pCDH-PAG-GFP constructs)
T3 sequence: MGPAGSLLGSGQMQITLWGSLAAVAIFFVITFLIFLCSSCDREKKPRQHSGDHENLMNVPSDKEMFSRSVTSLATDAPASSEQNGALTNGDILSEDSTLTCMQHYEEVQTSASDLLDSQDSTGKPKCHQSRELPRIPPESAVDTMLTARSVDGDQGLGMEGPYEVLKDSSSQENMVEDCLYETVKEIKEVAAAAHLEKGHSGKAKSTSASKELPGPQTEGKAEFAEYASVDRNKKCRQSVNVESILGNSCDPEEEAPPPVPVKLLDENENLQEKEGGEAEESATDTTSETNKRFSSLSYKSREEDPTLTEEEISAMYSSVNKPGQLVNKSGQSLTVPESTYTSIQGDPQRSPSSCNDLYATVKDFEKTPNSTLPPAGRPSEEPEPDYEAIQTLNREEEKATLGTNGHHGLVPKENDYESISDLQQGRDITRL
In words: flow cytometry, non-permeabilized A549 cells stably expressing PAG-GFP (FIG. 7B; FIG. 2E). How it is done: as §2

B1: anti-PAG antibody clone 8D04A (antibody, mouse IgG1, kappa, V domains shown)
VH: QIQLVQSGPELKKPGETVKISCKASGYIFTNYGMNWVKQAPGKGLKWMGWINPYTGEATYDDDFKGRFAFSLETSANTAYLQINNLKNEDTATYFCAKTGTTYWGQGTLVTVSA
VL: QIVLTQSPAIMSASPGEKVTMTCSASSSVSYMYWYQQKSGTSPKRWIYDTSKLASGVPARFSGSGSGTSYSLTINNMEAEDAATYYCQQWSSNPLTFGAGTKLELKR
notes: Mouse hybridoma monoclonal
With B1, the binding result in assay [1] was “no binding”.

B2: 7M-hu-1 (humanized version of 7M16A) (antibody, V domains shown)
VH: QVQLVQSGAEVKKPGASVKVSCKASGYTFTSYVMHWVRQAPGQGLEWMGYIYPYNDGTKYNEKFKGRVTMTRDTSTSTVYMELSSLRSEDTAVYYCARYKYGQGFAYWGQGTTVTVSS
VL: DIQMTQSPSSVSASVGDRVTITCRASENIYSNLAWYQQKPGKAPKLLIYAATNLADGVPSRFSGSGSGTDFTLTISSLQPEDFATYYCQHFWGTPWTFGGGTKLEIKR
In the case of B2, in assay [2], the binding result is given as “binds”.

B3: anti-PAG antibody clone 7M16A (antibody, mouse IgG1, kappa, V domains shown)
VH: EVQLQQSGPELVKPGASVKMSCKASGYTFTSYVMHWVKQKPGQGLEWIGYIYPYNDGTKYNEKFKGKATLTSDKSSSTAYMELSSLTSEDSAVYYCARYKYGQGFAYWGQGTRVTVSA
VL: DIQMTQSPASLSVSVGETVTITCRASENIYSNLAWYQQKQGKSPQLLVYAATNLADGVPSRFSGSGSGTQYSLKINSLQSEDFGSYYCQHFWGTPWTFGGGTKLEIKR
notes: Mouse hybridoma monoclonal, tested as hybridoma supernatant and as purified antibody
In the case of B3, the binding result in assay [3], in assay [4] and in assay [5] was “binds” each time.
